Source: CN115368446A (HEFEI TIANGANG IMMUNOLOGY PHARMACEUTICAL CO LTD, dated 2022)

Target: T1, CD79b蛋白 (on CHO-K1-CD79b细胞 / A375-CD79b细胞) (Homo sapiens (Human), UniProt P40259 29-229)
T1 sequence: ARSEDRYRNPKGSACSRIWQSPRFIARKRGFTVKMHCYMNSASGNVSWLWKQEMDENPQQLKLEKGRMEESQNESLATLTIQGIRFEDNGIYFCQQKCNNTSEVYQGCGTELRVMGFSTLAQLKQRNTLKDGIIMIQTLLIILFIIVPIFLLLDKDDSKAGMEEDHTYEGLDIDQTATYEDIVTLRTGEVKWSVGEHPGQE
Test: flow cytometry on CHO-K1-CD79b cells, Alexa-647 anti-human Fc detection

B1: 抗体CD3×CD79b (bispecific antibody, human IgG1, kappa, L234A L235A)
scFv: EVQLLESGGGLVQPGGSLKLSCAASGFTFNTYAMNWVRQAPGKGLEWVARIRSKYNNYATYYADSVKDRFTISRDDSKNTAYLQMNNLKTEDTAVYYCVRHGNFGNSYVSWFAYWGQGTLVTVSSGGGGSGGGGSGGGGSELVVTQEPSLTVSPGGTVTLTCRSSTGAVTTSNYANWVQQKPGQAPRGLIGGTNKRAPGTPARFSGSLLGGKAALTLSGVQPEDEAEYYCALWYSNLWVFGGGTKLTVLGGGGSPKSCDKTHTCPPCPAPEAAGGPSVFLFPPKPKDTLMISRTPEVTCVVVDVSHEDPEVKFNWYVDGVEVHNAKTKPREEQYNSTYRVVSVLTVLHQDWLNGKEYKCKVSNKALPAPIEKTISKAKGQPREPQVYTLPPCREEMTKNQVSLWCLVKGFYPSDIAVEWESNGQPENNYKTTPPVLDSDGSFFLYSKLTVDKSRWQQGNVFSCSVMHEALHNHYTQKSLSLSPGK
heavy: EVQLVESGGGLVQPGGSLRLSCAASGYTFSSYWIEWVRQAPGKGLEWIGEILPGGGDTNYNEIFKGRATFSADTSKNTAYLQMNSLRAEDTAVYYCTRRVPIRLDYWGQGTLVTVSSASTKGPSVFPLAPSSKSTSGGTAALGCLVKDYFPEPVTVSWNSGALTSGVHTFPAVLQSSGLYSLSSVVTVPSSSLGTQTYICNVNHKPSNTKVDKKVEPKSCDKTHTCPPCPAPEAAGGPSVFLFPPKPKDTLMISRTPEVTCVVVDVSHEDPEVKFNWYVDGVEVHNAKTKPREEQYNSTYRVVSVLTVLHQDWLNGKEYKCKVSNKALPAPIEKTISKAKGQPREPQVCTLPPSREEMTKNQVSLSCAVKGFYPSDIAVEWESNGQPENNYKTTPPVLDSDGSFFLVSKLTVDKSRWQQGNVFSCSVMHEALHNHYTQKSLSLSPGK
light: DIQLTQSPSSLSASVGDRVTITCKASQSVDYEGDSFLNWYQQKPGKAPKLLIYAASNLESGVPSRFSGSGSGTDFTLTISSLQPEDFATYYCQQSNEDPLTFGQGTKVEIKRTVAAPSVFIFPPSDEQLKSGTASVVCLLNNFYPREAKVQWKVDNALQSGNSQESVTEQDSKDSTYSLSSTLTLSKADYEKHKVYACEVTHQGLSSPVTKSFNRGEC
notes: Three-chain knob-into-hole bispecific made in ExpiCHO cells and purified on Protein A; also called CD3×CD79b抗体; CD3×CD79b双特异抗体
  binding result: binds
